Measured values published in patent US20060239968A1 (University of Texas, published 2006).
Positions of bridges follow the written chain, without caps; N, C: chain ends. Non-standard residues stand in square brackets, D forms with d. No end group written: not given here.

Tests used:
[1] = biological target: T1, Recombinant IL-11Rα (IL-11 receptor alpha) (UniProt Q14626 23-370, limits assumed); experiment: in vitro ligand-receptor binding assay, phage on recombinant receptor
T1 construct: also called immobilized IL-11Rα
T1 sequence (looked up): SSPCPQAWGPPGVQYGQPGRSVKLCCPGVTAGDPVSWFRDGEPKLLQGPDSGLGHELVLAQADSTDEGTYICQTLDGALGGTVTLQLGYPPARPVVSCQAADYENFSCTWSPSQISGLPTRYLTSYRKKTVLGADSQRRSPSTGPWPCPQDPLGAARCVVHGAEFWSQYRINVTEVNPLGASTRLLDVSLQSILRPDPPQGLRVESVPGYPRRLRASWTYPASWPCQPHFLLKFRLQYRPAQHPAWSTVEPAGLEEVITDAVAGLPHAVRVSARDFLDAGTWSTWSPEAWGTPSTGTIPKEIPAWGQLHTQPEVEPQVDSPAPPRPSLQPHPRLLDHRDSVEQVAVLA
Protocol: (§1) Recombinant IL-11Rα, vascular endothelial growth factor receptor-1 (VEGFR1) or leptin receptor (OB-R) were incubated with phage displaying the […] (SEQ ID NO:37) peptide. VEGFR1 was used as a representative vascular receptor, while OB-R was used because it shares a co-receptor with IL-11Rα. An unrelated phage clone displaying the peptide […] (SEQ ID NO:38) and insertless fd-tet phage were used as controls. […] Binding of […] (SEQ ID NO:37)-phage to IL-11Rα was specific, since it was inhibited by the native IL-11 ligand in a concentration-dependent manner (not shown). […] These observations with normal prostate tissues were followed by an examination of the expression of IL-11Rα in tumors, as discussed in the present Example.

[2] = biological target: T2, prohibitin (B cell receptor associated protein) (mouse); experiment: immunoprecipitation from mouse adipose tissue extract, SDS-PAGE
T2 sequence (P67778 2-272, looked up): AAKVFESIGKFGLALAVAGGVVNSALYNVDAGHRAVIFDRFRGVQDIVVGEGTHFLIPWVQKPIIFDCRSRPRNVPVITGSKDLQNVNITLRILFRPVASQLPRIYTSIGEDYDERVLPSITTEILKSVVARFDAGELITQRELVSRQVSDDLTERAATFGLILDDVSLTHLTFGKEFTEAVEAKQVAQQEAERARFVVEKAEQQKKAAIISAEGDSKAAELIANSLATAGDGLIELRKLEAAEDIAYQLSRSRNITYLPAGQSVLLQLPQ

[3] = biological target: T3, leptin receptor (OB-R), recombinant (UniProt P48357 22-839, limits assumed); experiment: in vitro ligand-receptor binding assay, phage on recombinant receptor
T3 sequence (looked up): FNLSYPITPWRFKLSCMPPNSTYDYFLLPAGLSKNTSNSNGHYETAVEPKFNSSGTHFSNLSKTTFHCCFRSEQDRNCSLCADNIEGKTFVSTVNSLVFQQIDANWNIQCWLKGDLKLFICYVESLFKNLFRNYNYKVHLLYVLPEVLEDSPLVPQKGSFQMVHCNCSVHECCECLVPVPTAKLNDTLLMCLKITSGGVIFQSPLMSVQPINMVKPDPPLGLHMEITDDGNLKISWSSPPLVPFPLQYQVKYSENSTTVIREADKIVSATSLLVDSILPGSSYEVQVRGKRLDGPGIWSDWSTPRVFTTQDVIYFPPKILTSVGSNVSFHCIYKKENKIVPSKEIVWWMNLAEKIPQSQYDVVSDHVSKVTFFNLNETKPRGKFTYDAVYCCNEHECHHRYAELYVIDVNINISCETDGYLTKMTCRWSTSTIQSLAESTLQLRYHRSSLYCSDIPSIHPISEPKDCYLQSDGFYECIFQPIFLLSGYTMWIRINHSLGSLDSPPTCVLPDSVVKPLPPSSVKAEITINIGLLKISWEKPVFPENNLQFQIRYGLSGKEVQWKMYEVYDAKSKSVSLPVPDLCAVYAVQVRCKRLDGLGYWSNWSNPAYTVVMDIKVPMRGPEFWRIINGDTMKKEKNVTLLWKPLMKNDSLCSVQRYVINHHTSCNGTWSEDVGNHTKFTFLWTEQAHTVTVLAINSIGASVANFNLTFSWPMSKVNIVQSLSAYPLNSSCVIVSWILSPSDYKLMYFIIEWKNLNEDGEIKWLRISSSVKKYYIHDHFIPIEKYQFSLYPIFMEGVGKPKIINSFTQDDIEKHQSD
Protocol: as §1

[4] = biological target: vascular endothelial growth factor receptor-1 (VEGFR1), recombinant (UniProt P17948 27-756, limits assumed); experiment: as above
Chain of vascular endothelial growth factor receptor-1 (VEGFR1), recombinant (P17948 27-756 limits assumed): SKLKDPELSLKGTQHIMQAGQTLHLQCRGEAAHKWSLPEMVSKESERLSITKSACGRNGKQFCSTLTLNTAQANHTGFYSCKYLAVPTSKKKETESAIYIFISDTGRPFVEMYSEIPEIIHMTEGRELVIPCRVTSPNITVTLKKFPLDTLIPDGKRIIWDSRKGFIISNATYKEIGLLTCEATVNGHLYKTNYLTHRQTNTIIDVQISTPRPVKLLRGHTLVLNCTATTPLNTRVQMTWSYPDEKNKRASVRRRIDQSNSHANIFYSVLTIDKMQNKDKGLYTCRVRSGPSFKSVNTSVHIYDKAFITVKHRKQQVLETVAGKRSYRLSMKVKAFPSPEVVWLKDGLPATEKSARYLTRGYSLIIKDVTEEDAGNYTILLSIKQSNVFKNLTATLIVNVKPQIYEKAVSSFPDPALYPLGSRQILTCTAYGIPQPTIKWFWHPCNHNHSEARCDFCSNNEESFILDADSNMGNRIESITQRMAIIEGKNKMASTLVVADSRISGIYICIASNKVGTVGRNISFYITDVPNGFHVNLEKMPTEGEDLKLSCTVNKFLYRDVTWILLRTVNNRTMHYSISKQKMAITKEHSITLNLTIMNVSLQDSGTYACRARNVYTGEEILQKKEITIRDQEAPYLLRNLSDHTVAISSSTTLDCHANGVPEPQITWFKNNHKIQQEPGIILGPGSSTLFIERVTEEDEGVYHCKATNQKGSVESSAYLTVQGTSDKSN
Protocol: as §1

B1: unrelated phage clone displaying the peptide CRVDFSKGC (SEQ ID NO:38) (peptide)
peptide: CRVDFSKGC
notes: used as a control; also called control phage
- binding result [1]: no binding

B2: … (SEQ ID NO:81) conjugated to (KLAKLAK)2 (SEQ ID NO:1) (peptide)
peptide: CKGGRAKDCGG[dK][dL][dA][dK][dL][dA][dK][dK][dL][dA][dK][dL][dA][dK]
modifications: disulfide 1-9 (inferred); not fully specified; also: order of the parts not given here explicitly
- fold enrichment against the CARAC (SEQ ID NO:71) precipitated fraction [2]: > 10 fold

B3: CGRRAGGSC (SEQ ID NO:37)-displaying phage (peptide)
peptide: CGRRAGGSC
modifications: not fully specified (bridges); cysteine pairing not given here; also: displayed on filamentous phage
notes: also called prostate-homing phage displaying an IL-11 peptide mimic
- binding result [3]: no binding
- binding result [4]: no binding
